From patent US8323971B2, “Differentiation of pluripotent cells into primary germ layer progenitors” (Cambridge Enterprise Limited, priority 2006, dated 2012)

What was measured:
Type in all cases: cell-based, human
hESC derived EBs [1] = assay: Quantitation of rosette structures in EBs; conditions: expressing EBs grown in CDM
Experimental: (§1) Lefty or Cerb-S expressing hESCs (as well as wildtype H9 and hSF-6 hESCs) were grown in 6 cm dishes (Corning), on mouse feeders. When confluent, hESCs were passaged using collagenase 1 mg/ml, as previously described (Schatten et al., 2005) and cultured in non-adherent conditions in CDM supplemented with either SU5402 (Calbiochem; 10 μM), SB431542 (Tocris; 20 μM), FGF-2 (R&D Systems; 12 ng/ml) or Noggin 200 ng/ml.
To investigate the development of EBs derived from Lefty or Cerb-S overexpressing hESCs, we grew the cells as EBs in suspension culture using CDM medium. As previously observed (Vallier et al., 2004a), wildtype control EBs grown in CDM developed almost exclusively as simple spheres with no apparent tissue organisation. […] Hematoxylin/Eosin staining of sectioned EBs confirmed that these folded structures found in Lefty overexpressing EBs were neuroectoderm-like, with internal epithelial rosettes. Lefty and Cerb-S expressing EBs contained respectively 5 times (Pb 0.05) and 2 times (not significant, N.S.) more epithelial rosettes than control EBs (FIG. 5).

hESC derived EBs [2] = assay: Incidence of beating structures in EBs plated in MEF media; conditions: over-expressing EBs in MEF medium containing FBS
Experimental: Lefty, Cerb-S expressing and wildtype EBs were plated in MEF media, and beating EBs were counted. Lefty expressing EBs generated fewer beating structures as compared to wildtype EBs (NS=not significant) (Scale bar=[…]).
In some experiments, hESCs were incubated in DMEM supplemented with 10% FCS and 1 mM glutamine (MEF media) to promote mesoderm formation. EBs were then grown for 12-16 days at 37° C. at […] before being harvested for histological or molecular marker analysis.
To evaluate further the differentiation potential of Lefty and Cerb-S overexpressing hESCs, EBs were cultured in MEF medium containing fetal bovine serum (FBS), which promotes the formation of mesoderm lineages including cardiomyocytes, as recognised by rhythmically beating structures. […] Nodal expressing EBs grown in these conditions were not seen to generate such beating structures, and instead maintained expression of the pluripotency marker Oct-4 (FIG. 7).

hESCs = assay: Quantitation of β-tubulin III positive cells in monolayer differentiation; conditions: expressing hESCs differentiated in CDM, monolayer, 24 days
Experimental: In some experiments, Wildtype and Lefty expressing hESCs were grown on fibronectin in FGF (12 ng/ml)/Activin (20 ng/ml) as a monolayer in the absence of a feeder layer (Vallier et al., 2005). When cells were 70-80% confluent medium was changed to either CDM only, CDM/FGF (12 ng/ml), CDM/Noggin 200 ng/ml, CDM/SU5402 and differentiated for 24 days.
To quantify the neurogenic potential of Lefty expressing hESCs, we cultured Lefty expressing hESCs in feeder-free conditions as a monolayer in CDM supplemented with Activin and FGF as described previously (Vallier et al., 2005). When cells reached 70-80% confluency, medium was changed to CDM only, CDM plus FGF (12 ng/ml) (CDM/FGF), CDM plus the BMP inhibitor Noggin (200 ng/ml) ([…]) (CDM/SU5402), and cells were cultured in these conditions for 24 days
The incidence of neural differentiation was determined by counting the number of β-tubulin III positive cells in random fields.

hESC derived EBs [3] = assay: Real time qPCR / RT-PCR of neuroectoderm and pluripotency markers in EBs; conditions: expressing EBs compared to wildtype
Experimental: Four independent batches of WT and Lefty EBs were used for this analysis.
Five independent batches of DMSO- and SB431542-treated EBs were used for this analysis.
as §1
For some RT-PCR experiments, 50-100 ng of RNA were used for each RT-PCR reaction, using the OneStep RT-PCR kit according to manufacturer instructions. For real-time PCR, 1 μg RNA was reverse-transcribed using the Qiagen QuantiTect Reverse Transcription kit. 1/20-1/40 of each cDNA reaction was used for each real-time PCR reaction using the QuantiTect SYBR Green PCR Kit (Qiagen) according to manufacturer instructions. Relative quantification of gene expression was done by normalising the detected levels of gene of interest mRNA to those of the house-keeping GAPDH gene. All primers were purchased from Qiagen, with the exception of Xenopus Cerb-S: Forward 5′-[…]-3′ (SEQ ID NO: 1); Reverse 5′-ATGGTGCAGGGTAG TAGATG-3′ (SEQ ID NO: 2). Mouse Lefty2: Forward 5^r-[…]-3′ (SEQ ID NO: 3); Reverse 5′-[…]-3′ (SEQ ID NO: 4).

B1: Lefty: mouse Lefty2, Nodal inhibitor stably over-expressed in hESCs (protein, UniProt P57785 78-368, looked up)
Left-right determination …: FSQNFREVAGRFLMSETSTHLLVFGMEQRLPPNSELVQAVLRLFQEPVPRTALRRFERLSPHSARARVTIEWLRVREDGSNRTALIDSRLVSIHESGWKAFDVTEAVNFWQQLSRPRQPLLLQVSVQREHLGPGTWSAHKLVRFAAQGTPDGKGQGEPQLELHTLDLKDYGAQGNCDPEVPVTEGTRCCRQEMYLDLQGMKWAENWILEPPGFLTYECVGSCLQLPESLTIGWPFLGPRQCVASEMTSLPMIVSVKEGGRTRPQVVSLPNMRVQTCSCASDGALIPRGIDL
Which “epithelial rosettes relative to control EBs” value (hESC derived EBs [1]) does the source give for B1 here?
The value was 5 times.

And the “decrease of incidence of rhythmically contracting structures compared to wildtype EBs” value (hESC derived EBs [2])?
The value was roughly 79%.

What about the “β-tubulin III positive cells/field” value (hESCs) of the same molecule?
The value was 69±13 cells/field.

And the “Nestin, Sox3 and Sox1 expression (real-time qPCR)” value (hESC derived EBs [3])?
The value was “increased average levels”.
